The assay concerns the target human voltage-gated K+ channel Kv1.3 with C-terminal FLAG/10Xhis tag, expressed in Tetrahymena thermophila (human) (UniProt P22001). The assay is described as follows: fluorescence polarisation. On the technique in general: In fluorescence polarisation assays a small probe gives low polarisation when free and higher when bound to something large.
UniProt P22001, sequence (P22001 whole entry): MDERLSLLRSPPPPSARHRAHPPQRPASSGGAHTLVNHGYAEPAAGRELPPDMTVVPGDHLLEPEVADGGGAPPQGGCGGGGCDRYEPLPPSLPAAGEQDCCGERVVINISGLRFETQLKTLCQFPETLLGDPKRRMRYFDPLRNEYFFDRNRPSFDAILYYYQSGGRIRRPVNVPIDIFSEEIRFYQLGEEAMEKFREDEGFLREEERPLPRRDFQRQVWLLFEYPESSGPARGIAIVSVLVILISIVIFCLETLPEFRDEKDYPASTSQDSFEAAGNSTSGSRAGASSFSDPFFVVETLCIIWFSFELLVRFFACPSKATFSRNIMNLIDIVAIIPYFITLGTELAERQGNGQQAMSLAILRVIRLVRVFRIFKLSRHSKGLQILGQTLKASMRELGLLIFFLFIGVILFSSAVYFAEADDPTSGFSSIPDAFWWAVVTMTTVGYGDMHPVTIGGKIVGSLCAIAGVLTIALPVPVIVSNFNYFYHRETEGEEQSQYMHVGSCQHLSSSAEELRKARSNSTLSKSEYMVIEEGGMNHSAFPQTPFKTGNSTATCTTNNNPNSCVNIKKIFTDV

By Kd is commonly meant a measure of binding affinity in units of concentration. In the case of “FAM-ShK (Fluorescein 6-carbonyl-labelled Stichodactyla toxin) (peptide)”, the Kd stood at 0.0115 µM.

The values above are taken from publication PMC5973702.
